Laboratory results reported in the supplement of paper PMC12042874.
± gives the uncertainty stated by the source.

Experiment: amyloid nucleation score (Sup35N fusion, yeast selection) (log enrichment); library NNK3; higher = more nucleation; inactive = no reads after selection
Method in brief: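 Nucleation score: DiMSum log enrichment of output over input reads, centred on the mode score of non-aggregating sequences. Only sequences with at least 100 input reads were kept. Reads came from Illumina sequencing of plasmid inserts before and after 7 days of growth at 30°C without adenine and uracil, in psi-negative yeast expressing Sup35N fused to peptides of 20 random codons after 24 hours of induction with 100 μM copper sulfate.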
VLCNYGCGIDFAV gave an amyloid nucleation score of 0.181 ± 0.53. For FISRSGAVGRRS, the amyloid nucleation score was “inactive”. For RSFSLGRLSYYRGVTNILLA, the amyloid nucleation score was “inactive”. In the case of FPFLSSSSDSSEMFILKLFD, the amyloid nucleation score is reported as “inactive”. With VKSFCCFGWVLSP the amyloid nucleation score was “inactive”. For RCTGRLRTVGRSSMLEFEFV, the amyloid nucleation score was “inactive”. For IKGFRGLLFEVSYHSPELGW, the amyloid nucleation score was “inactive”. In the case of VDWNRTFEIKSVEGDVKGAL, the amyloid nucleation score is reported as “inactive”. For PELLEHYMSHF, the amyloid nucleation score was “inactive”. In the case of NFEIFSRVQWDLC, the amyloid nucleation score is reported as “inactive”. With EPYPM the amyloid nucleation score was “inactive”. In the case of SWVFFD, the amyloid nucleation score is reported as “inactive”. For LLEIDVGISRCLGVTSETFW, the amyloid nucleation score was “inactive”. In the case of APIVKL, the amyloid nucleation score is reported as “inactive”. With STSFCSSLDLWSQEVIVASV the amyloid nucleation score was “inactive”. For RYKAVRRKYPGCRLGWMRPL, the amyloid nucleation score was “inactive”. With ITFVYSS the amyloid nucleation score was “inactive”. With LLCMTPNIVNSRLMTYYPCH the amyloid nucleation score was “inactive”. With SFHASGQSSLYKKGDLSTCV the amyloid nucleation score was “inactive”. In the case of EHFNPRNC, the amyloid nucleation score is reported as “inactive”. Substance RCNALSLWIYNEKSWNNTWY has an amyloid nucleation score of 1.74 ± 0.084. Work on FVWLWVVISLNCSNNEFVFN yielded an amyloid nucleation score of 2.51 ± 0.061. For VYVRVFGLLPDDTTSSF, the amyloid nucleation score was “inactive”. In the case of FRWNNCGSMVRISTPSYSFL, the amyloid nucleation score is reported as “inactive”. For SCGTCKTSFIKR, the amyloid nucleation score was “inactive”. For TVKVYTWNY, the amyloid nucleation score was 1.93 ± 0.09. In the case of HSSKSTGTYFGNMS, the amyloid nucleation score is reported as “inactive”. For PVFQLNNFTYMRVPCLRGLN, the amyloid nucleation score was “inactive”. For VYNLIRLFLYPTVISSITPL, the amyloid nucleation score was “inactive”. In the case of VSATSQYQSICLSLNTKNRF, the amyloid nucleation score is reported as “inactive”. Work on CIVYSFSRGFTSNGGEGYRW yielded an amyloid nucleation score of 0.67 ± 0.22. In the case of CFWFNHSNRRGQFFH, the amyloid nucleation score is reported as -0.286 ± 0.77. In the case of WTSSVILRPSMCLLGWYMLV, the amyloid nucleation score is reported as “inactive”. In the case of YLVSDE, the amyloid nucleation score is reported as “inactive”. With PLESSWSK the amyloid nucleation score was “inactive”. With YKYVTNDLSRVILRPVSARY the amyloid nucleation score was “inactive”. For PMSVRRTVFCPSTSM, the amyloid nucleation score was “inactive”. In the case of IWSMWIYCRNGHH, the amyloid nucleation score is reported as “inactive”. For HLSTRLARFPLL, the amyloid nucleation score was “inactive”. In the case of KTYPTLCILCVDMLLRKRGV, the amyloid nucleation score is reported as “inactive”. For SIRVSVMFNIRKKVFDLQRF, the amyloid nucleation score was “inactive”. With SYDVNTDFVLCDYSRDTGSQ the amyloid nucleation score was “inactive”. With ECRYIPLYREFTRRVSMSGL the amyloid nucleation score was “inactive”. In the case of GTGTRSHTLA, the amyloid nucleation score is reported as “inactive”. In the case of DHQLSGGDGVGSMYSTEGKL, the amyloid nucleation score is reported as “inactive”. For IFYVCRIIWCTERQVGKLGL, the amyloid nucleation score was “inactive”. For CYPTSFGCFFVFFWYYVYCG, the amyloid nucleation score was “inactive”. For NSKGMI, the amyloid nucleation score was “inactive”. For AKGAMLCTMT, the amyloid nucleation score was “inactive”. For PEAVTCCNQKMTPVFIIGHP, the amyloid nucleation score was “inactive”. For YHYLSNVGMRWGDFTYSWFM, the amyloid nucleation score was “inactive”. FVYFKLGVMSPLQTTNTHLS gave an amyloid nucleation score of 0.804 ± 0.11. With NTLDDDFRISPDATVYSVYW the amyloid nucleation score was “inactive”. In the case of WISIVQW, the amyloid nucleation score is reported as “inactive”. In the case of GTLLMMVFGTVHS, the amyloid nucleation score is reported as “inactive”. For SELHRNRPTKLGFCRYESQV, the amyloid nucleation score was “inactive”. For VFPKSYTPDQTFPCNSSLAK, the amyloid nucleation score was “inactive”. For SSYVLNYIHLSG, the amyloid nucleation score was 1.88 ± 0.08. With RLDVFYEMLIMYKEQYGMVR the amyloid nucleation score was “inactive”. In the case of NGNFSVRFSVKS, the amyloid nucleation score is reported as “inactive”. In the case of SIPNTTFIFSLL, the amyloid nucleation score is reported as 1.19 ± 0.08. For WIVVDKSNQCGLGYVLWYNF, the amyloid nucleation score was “inactive”. TVDFLSLVCVVIFRGTDWRR gave an amyloid nucleation score of -1.03 ± 1.1. In the case of ETNEGPH, the amyloid nucleation score is reported as “inactive”. With LGQRWHVMLVLMSVYIF the amyloid nucleation score was “inactive”. For IPGALGNKAICTRASSRRVG, the amyloid nucleation score was “inactive”. For HWGHVHLVIRLPVMPDSDNR, the amyloid nucleation score was “inactive”. With QGKCDSELRAAAMDI the amyloid nucleation score was “inactive”. With TNNRKRLYYWFERVTSE the amyloid nucleation score was “inactive”. With HYSAREWLLLCIMVCDVVVW the amyloid nucleation score was “inactive”. With CGVYPYPWVVMFTDCKMNRW the amyloid nucleation score was “inactive”. With PVQACRCKSH the amyloid nucleation score was “inactive”. In the case of AGTSKMNIYSMHAV, the amyloid nucleation score is reported as “inactive”. For CWEFYVVLYRLLGICKIRVL, the amyloid nucleation score was “inactive”. For FVCLKNFIFNRYKADGD, the amyloid nucleation score was 1.17 ± 0.19. In the case of MPRSCSDYACAV, the amyloid nucleation score is reported as “inactive”. RYSYLGVCIKMSRKVKCVVT gave an amyloid nucleation score of 0.086 ± 0.66. For GDRRER, the amyloid nucleation score was 0.811 ± 0.16. In the case of HILWHTSSSGELLPMSP, the amyloid nucleation score is reported as “inactive”. For CSYRCYSLGCNMQIV, the amyloid nucleation score was “inactive”. For TRICMCFEFVNTSY, the amyloid nucleation score was “inactive”. For LYVVCKLSHRPHNAWEKRVP, the amyloid nucleation score was 0.315 ± 0.29. In the case of VNTLPQLLSLYSDLLRGESL, the amyloid nucleation score is reported as -0.218 ± 1.4. With SNMSMMSYYAGRDPRPVSFL the amyloid nucleation score was “inactive”. Work on SSTPIFFLFFKSVQQVFNFP yielded an amyloid nucleation score of 0.722 ± 0.18. In the case of THVSSGYRYEEILWWHSRGW, the amyloid nucleation score is reported as “inactive”. Work on ITCLNMTWSTAGQWLCVSFT yielded an amyloid nucleation score of 1.05 ± 0.17. For IISQIRCFNLPEVPSSTMCL, the amyloid nucleation score was “inactive”. Substance WSTESWTYPGIRMCFWGGEG has an amyloid nucleation score of -0.755 ± 1.4. With FFSDRLTSTGSMES the amyloid nucleation score was “inactive”. QRYTFIIIGTGWTGYYRHTP showed an amyloid nucleation score of -0.156 ± 0.41. With LLKGFSCFLNR the amyloid nucleation score was “inactive”. For DDPQVGLNFAQSYALPEYFA, the amyloid nucleation score was “inactive”. In the case of LFYYSRTVESYLSNVCLVIR, the amyloid nucleation score is reported as “inactive”. For VSEIFFADVFISWYGISRVL, the amyloid nucleation score was “inactive”. In the case of WWTNLATPAKNQS, the amyloid nucleation score is reported as “inactive”. In the case of VSGMDCSGGFASVESMASYR, the amyloid nucleation score is reported as “inactive”. With DIVGHIKSLMFLVLEDTSSP the amyloid nucleation score was “inactive”. For RRVGSWTYVSFSDGI, the amyloid nucleation score was 0.239 ± 0.41. For LNRAPTAQLSGDCRVGVQAT, the amyloid nucleation score was “inactive”. For FDLTWSIVEHFHVWLLRFSF, the amyloid nucleation score was “inactive”. SCFSSYCRYNLRLSWRQNFV gave an amyloid nucleation score of -0.474 ± 1. For PIIFNFLRIM, the amyloid nucleation score was 1.7 ± 0.058. In the case of SAYSSGLRSKAYLYTASCTP, the amyloid nucleation score is reported as “inactive”. For FFTMSKI, the amyloid nucleation score was “inactive”. For GSACFPYFYTYSFRFLVAC, the amyloid nucleation score was “inactive”. For LIRHFNKRVTSCNVVLLYNG, the amyloid nucleation score was “inactive”. With VYSGSFGDSKLLMFWCSITV the amyloid nucleation score was “inactive”. With GHRHQFSHATVNDVKSRV the amyloid nucleation score was “inactive”. For SYYPRIRRLGWECSWTPMLQ, the amyloid nucleation score was “inactive”. In the case of IWFSLLVPDLPRIIGSLYIS, the amyloid nucleation score is reported as “inactive”. With SPLNQVSGYIMFWYSGT the amyloid nucleation score was “inactive”. In the case of GVDLDLLICGYMLWMDYCSG, the amyloid nucleation score is reported as “inactive”. For RFMSCMGFPHRCHGSSRYVG, the amyloid nucleation score was “inactive”. In the case of RDGSM, the amyloid nucleation score is reported as “inactive”. In the case of LNQGHYSVDLSSATGTVTTF, the amyloid nucleation score is reported as “inactive”. In the case of VGNQKIIMRGALELDRELTC, the amyloid nucleation score is reported as “inactive”. In the case of FCRQGNILFY, the amyloid nucleation score is reported as “inactive”. For LTRDVCFN, the amyloid nucleation score was 0.312 ± 0.54. Work on CVFYCSKLWIRYNNVMMISS yielded an amyloid nucleation score of 0.831 ± 0.1. In the case of DYGLHDRTYTSIYRVA, the amyloid nucleation score is reported as “inactive”. In the case of KSKHTVMRWSLYSRRIMLVF, the amyloid nucleation score is reported as “inactive”. In the case of YVDCYRFAVMQEFPCQYRGD, the amyloid nucleation score is reported as “inactive”. With LPGNVFDVPLFNLDVYWVTR the amyloid nucleation score was “inactive”. Work on WVGNTVKHKLGLVGNCGSCA yielded an amyloid nucleation score of -0.73 ± 1.9. For DDHLGKVGSGFRIGICTLQN, the amyloid nucleation score was “inactive”. In the case of MTCSQSECARVIVSRCHVWP, the amyloid nucleation score is reported as “inactive”. In the case of SINGRDSQG, the amyloid nucleation score is reported as “inactive”. In the case of LDLLMGV, the amyloid nucleation score is reported as “inactive”. Substance AGNLLARPSLQKGCLLDELP has an amyloid nucleation score of -0.73 ± 1.7. With RPYSNQGGTLITSAVLGLTK the amyloid nucleation score was “inactive”. With YKYRSLYFSRYIVLYVVGVL the amyloid nucleation score was “inactive”. For VKSLIELCRYNRPLALDLNI, the amyloid nucleation score was -0.519 ± 0.8. In the case of HAFFSADSWGNDIELFIYNG, the amyloid nucleation score is reported as “inactive”. With HCCNIRRARTQF the amyloid nucleation score was “inactive”. For LTGLEMLYYTCFNVCTRKCV, the amyloid nucleation score was “inactive”. In the case of LREMGLHYWGD, the amyloid nucleation score is reported as “inactive”. With TWVCEG the amyloid nucleation score was “inactive”. VAVDIRALFRGRWVMNLARR showed an amyloid nucleation score of -0.75 ± 1.5. In the case of SCIRNSLRLNSFSVFFLAFH, the amyloid nucleation score is reported as “inactive”. Substance LFLFQFRYGSWGFRGYMVGR has an amyloid nucleation score of 0.837 ± 0.27. With LVFPPAY the amyloid nucleation score was “inactive”. For YSGSNITTHNVFNETGDWSG, the amyloid nucleation score was “inactive”. For CCNDWR, the amyloid nucleation score was “inactive”. For YCYFFLGLCTYKSQYNGLRL, the amyloid nucleation score was “inactive”. With HVVVFDYLLSVLCIVDRVEG the amyloid nucleation score was “inactive”. IVFSGNLLVGNGFGVLKRKT gave an amyloid nucleation score of 1.32 ± 0.14. In the case of SNLLCEALETRLYPRLKHVR, the amyloid nucleation score is reported as “inactive”. With FLRSSVCA the amyloid nucleation score was “inactive”. For FLSFSFYLVYRRKSVRFQ, the amyloid nucleation score was “inactive”. With SRITNHDD the amyloid nucleation score was “inactive”. FSCSYTMGQCEASCVWQLKY gave an amyloid nucleation score of 0.36 ± 0.35. With THHRPWWYHSEVGVRCMNEV the amyloid nucleation score was 0.049 ± 0.96. Work on TEESIDVDCVILVTNCHFRC yielded an amyloid nucleation score of 0.804 ± 0.18. In the case of HMDSWSYWVIVV, the amyloid nucleation score is reported as “inactive”. In the case of PFHSVYVDDDAWNGVCLPAV, the amyloid nucleation score is reported as “inactive”. For ILNYLRENCQKVTGRGA, the amyloid nucleation score was -0.679 ± 0.96. For HVTIYGPET, the amyloid nucleation score was “inactive”. For TVDMSKPGYIWFSSDRSRYW, the amyloid nucleation score was “inactive”.
